Columns and labels:
[1] = biological target: T1, B7-H3 on A498 and JIMT-1 target cells (UniProt Q5ZPR3 29-534, limits assumed); assay: cell-based or functional assay
T1 sequence (looked up): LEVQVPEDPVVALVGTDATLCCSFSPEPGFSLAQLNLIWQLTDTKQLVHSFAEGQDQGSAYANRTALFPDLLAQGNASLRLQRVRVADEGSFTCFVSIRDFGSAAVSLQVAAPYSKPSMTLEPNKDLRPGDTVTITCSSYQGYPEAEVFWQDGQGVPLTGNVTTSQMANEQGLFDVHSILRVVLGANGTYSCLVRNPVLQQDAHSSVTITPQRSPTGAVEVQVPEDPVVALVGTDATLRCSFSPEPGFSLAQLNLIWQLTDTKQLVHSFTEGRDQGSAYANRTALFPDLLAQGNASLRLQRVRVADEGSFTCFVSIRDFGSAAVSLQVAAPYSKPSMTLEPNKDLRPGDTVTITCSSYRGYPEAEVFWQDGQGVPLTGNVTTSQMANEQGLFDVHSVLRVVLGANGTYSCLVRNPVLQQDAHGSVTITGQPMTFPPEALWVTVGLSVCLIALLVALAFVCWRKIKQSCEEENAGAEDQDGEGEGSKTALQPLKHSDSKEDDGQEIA

[2] = biological target: ROR1 on JIMT-1 and A549 target cells (UniProt Q01973 30-937, limits assumed); assay: cell-based or functional assay
[3] = biological target: T2, 5T4 on JIMT-1 target cells (UniProt Q13641 32-420, limits assumed); assay: cell-based or functional assay
T2 sequence (looked up): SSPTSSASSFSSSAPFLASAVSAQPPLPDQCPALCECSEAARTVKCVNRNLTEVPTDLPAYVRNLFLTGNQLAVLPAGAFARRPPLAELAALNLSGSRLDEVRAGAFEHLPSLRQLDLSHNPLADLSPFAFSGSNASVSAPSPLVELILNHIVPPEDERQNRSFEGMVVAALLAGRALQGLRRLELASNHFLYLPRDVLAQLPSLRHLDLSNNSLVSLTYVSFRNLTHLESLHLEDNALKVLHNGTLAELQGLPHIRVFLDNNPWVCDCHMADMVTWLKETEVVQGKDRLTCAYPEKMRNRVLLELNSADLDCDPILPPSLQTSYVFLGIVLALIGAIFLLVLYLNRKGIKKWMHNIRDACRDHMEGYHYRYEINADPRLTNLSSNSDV

[4] = biological target: T3, CD8 on human T cells (PBMC) (human, UniProt P01732 22-235); assay: flow cytometry on human PBMC gated CD5+/CD4- (cells carry CD8 and CD3), detection with anti-human Fc-PE
T3 construct: whole, on cells; The CD8+ (CD5+ CD4-) cells also carry CD3; also called CD5+ CD4- gated PBMC; CD8+ T cells
T3 sequence (P01732 22-235): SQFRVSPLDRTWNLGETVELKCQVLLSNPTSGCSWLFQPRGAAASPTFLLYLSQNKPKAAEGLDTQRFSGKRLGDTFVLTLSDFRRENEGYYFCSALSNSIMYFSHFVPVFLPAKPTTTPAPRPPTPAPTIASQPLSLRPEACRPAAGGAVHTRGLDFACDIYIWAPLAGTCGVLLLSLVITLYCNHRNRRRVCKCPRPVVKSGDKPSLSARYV

B1: B7-H3 mAb 1/CD8 mAb 1/CD3 mAb 2 Tri-Specific Binding Molecule (other)
chain 1: DVQINQSPSFLAASPGETITINCRTSRSISQYLAWYQEKPGKTNKLLIYSGSTLQSGIPSRFSGSGSGTDFTLTISGLEPEDFAMYYCQQHNENPLTFGAGTKLELRGGGSGGGGQVQLVQSGAEVKKPGASVKVSCKASGYTFTSYWMQWVRQAPGQGLEWMGTIYPGDGDTRYTQKFKGRVTITADKSTSTAYMELSSLRSEDTAVYYCARRGIPRLWYFDVWGQGTTVTVSSGGCGGGEVAALEKEVAALEKEVAALEKEVAALEKGGGDKTHTCPPCPAPEAAGGPSVFLFPPKPKDTLMISRTPEVTCVVVDVSHEDPEVKFNWYVDGVEVHNAKTKPREEQYNSTYRVVSVLTVLHQDWLNGKEYKCKVSNKALPAPIEKTISKAKGQPREPQVYTLPPSREEMTKNQVSLWCLVKGFYPSDIAVEWESNGQPENNYKTTPPVLDSDGSFFLYSKLTVDKSRWQQGNVFSCSVMHEALHNHYTQKSLSLSPGK
chain 2: DIQMTQSPSSLSASVGDRVTITCRASQDISNYLNWYQQKPGKAPKLLIYYTSRLHSGVPSRFSGSGSGTDFTLTISSLQPEDIATYYCQQGNTLPPTFGGGTKLEIKGGGSGGGGEVQLQQSGAELVKPGASVKLSCTASGFNIKDTYIHFVRQRPEQGLEWIGRIDPANDNTLYASKFQGKATITADTSSNTAYMHLCSLTSGDTAVYYCGRGYGYYVFDHWGQGTTLTVSSGGCGGGKVAALKEKVAALKEKVAALKEKVAALKE
heavy: EVQLVESGGGLVQPGGSLRLSCAASGFTFSTYAMNWVRQAPGKGLEWVGRIRSKYNNYATYYADSVKDRFTISRDDSKNSLYLQMNSLKTEDTAVYYCVRHGNFGNSYVSWFAYWGQGTLVTVSSASTKGPSVFPLAPSSKSTSGGTAALGCLVKDYFPEPVTVSWNSGALTSGVHTFPAVLQSSGLYSLSSVVTVPSSSLGTQTYICNVNHKPSNTKVDKRVEPKSCDKTHTCPPCPAPEAAGGPSVFLFPPKPKDTLMISRTPEVTCVVVDVSHEDPEVKFNWYVDGVEVHNAKTKPREEQYNSTYRVVSVLTVLHQDWLNGKEYKCKVSNKALPAPIEKTISKAKGQPREPQVYTLPPSREEMTKNQVSLSCAVKGFYPSDIAVEWESNGQPENNYKTTPPVLDSDGSFFLVSKLTVDKSRWQQGNVFSCSVMHEALHNRYTQKSLSLSPGK
light: QAVVTQEPSLTVSPGGTVTLTCRSSTGAVTTSNYANWVQQKPGQAPRGLIGGTNKRAPWTPARFSGSLLGGKAALTITGAQAEDEADYYCALWYSNLWVFGGGTKLTVLGRTVAAPSVFIFPPSDEQLKSGTASVVCLLNNFYPREAKVQWKVDNALQSGNSQESVTEQDSKDSTYSLSSTLTLSKADYEKHKVYACEVTHQGLSSPVTKSFNRGEC
- EC50 (nM) of killing, CD4+ effector cells, JIMT1-luc target cells, E:T 5:1 [1]: 1.1 nM
- EC50 (nM) of killing, CD8+ effector cells, JIMT1-luc target cells, E:T 5:1 [1]: 0.412 nM
- EC50 (nM) of killing, PanT effector cells, JIMT1-luc target cells, E:T 5:1 [1]: 0.535 nM

B2: ROR1 mAb 1/CD3 mAb 2/CD8 mAb 2 Tri-Specific Binding Molecule (other)
chain 1: QLVLTQSPSASASLGSSVKLTCTLSSGHKTDTIDWYQQQPGKAPRYLMKLEGSGSYNKGSGVPDRFGSGSSSGADRYLTISSLQSEDEADYYCGTDYPGNYLFGGGTQLTVLGGGGSGGGGEVQLVESGGGLVQPGGSLRLSCAASGFTFSTYAMNWVRQAPGKGLEWVGRIRSKYNNYATYYADSVKGRFTISRDDSKNSLYLQMNSLKTEDTAVYYCVRHGNFGNSYVSWFAYWGQGTLVTVSSGGCGGGEVAALEKEVAALEKEVAALEKEVAALEKGGGDKTHTCPPCPAPEAAGGPSVFLFPPKPKDTLMISRTPEVTCVVVDVSHEDPEVKFNWYVDGVEVHNAKTKPREEQYNSTYRVVSVLTVLHQDWLNGKEYKCKVSNKALPAPIEKTISKAKGQPREPQVYTLPPSREEMTKNQVSLWCLVKGFYPSDIAVEWESNGQPENNYKTTPPVLDSDGSFFLYSKLTVDKSRWQQGNVFSCSVMHEALHNHYTQKSLSLSPGK
chain 2: QAVVTQEPSLTVSPGGTVTLTCRSSTGAVTTSNYANWVQQKPGQAPRGLIGGTNKRAPWTPARFSGSLLGGKAALTITGAQAEDEADYYCALWYSNLWVFGGGTKLTVLGGGGSGGGGQEQLVESGGGLVQPGGSLRLSCAASGFTFSDYYMSWVRQAPGKGLEWVATIYPSSGKTYYADSVKGRFTISSDNAKNSLYLQMNSLRAEDTAVYYCARDSYADDAALFDIWGQGTTVTVSSGGCGGGKVAALKEKVAALKEKVAALKEKVAALKE
heavy: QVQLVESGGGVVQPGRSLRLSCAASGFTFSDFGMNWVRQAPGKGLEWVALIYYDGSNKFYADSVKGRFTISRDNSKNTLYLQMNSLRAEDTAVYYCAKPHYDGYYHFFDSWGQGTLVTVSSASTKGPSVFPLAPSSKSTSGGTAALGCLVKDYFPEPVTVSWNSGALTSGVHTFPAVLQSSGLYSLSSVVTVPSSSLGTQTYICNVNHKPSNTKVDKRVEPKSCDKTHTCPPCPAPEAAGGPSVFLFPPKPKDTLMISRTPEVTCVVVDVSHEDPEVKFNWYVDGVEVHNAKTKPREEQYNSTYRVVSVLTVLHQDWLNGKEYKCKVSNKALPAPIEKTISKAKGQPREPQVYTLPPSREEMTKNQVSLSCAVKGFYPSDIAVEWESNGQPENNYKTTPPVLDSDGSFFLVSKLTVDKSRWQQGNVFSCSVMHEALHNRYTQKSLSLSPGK
light: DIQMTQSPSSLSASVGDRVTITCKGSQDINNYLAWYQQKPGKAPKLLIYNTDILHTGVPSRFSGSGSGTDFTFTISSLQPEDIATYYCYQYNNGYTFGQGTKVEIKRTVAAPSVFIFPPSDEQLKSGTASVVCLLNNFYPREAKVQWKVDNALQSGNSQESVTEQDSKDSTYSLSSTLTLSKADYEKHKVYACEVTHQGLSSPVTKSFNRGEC
- EC50 (nM) of killing, CD4+ effector cells, JIMT1-luc target cells, E:T 5:1 [2]: 0.277 nM
- EC50 (nM) of killing, CD8+ effector cells, JIMT1-luc target cells, E:T 5:1 [2]: 0.0021 nM
- EC50 (nM) of killing, PanT effector cells, JIMT1-luc target cells, E:T 5:1 [2]: 0.0057 nM

B3: 5T4 mAb 1/CD3 mAb 2/CD8 mAb 1 Tri-Specific Binding Molecule (other)
chain 1: DIQMTQSPSSLSASVGDRVTITCRASQGISNYLAWFQQKPGKAPKSLIYRANRLQSGVPSRFSGSGSGTDFTLTISSLQPEDVATYYCLQYDDFPWTFGQGTKLEIKGGGSGGGGEVQLVESGGGLVQPGGSLRLSCAASGFTFSTYAMNWVRQAPGKGLEWVGRIRSKYNNYATYYADSVKGRFTISRDDSKNSLYLQMNSLKTEDTAVYYCVRHGNFGNSYVSWFAYWGQGTLVTVSSGGCGGGEVAALEKEVAALEKEVAALEKEVAALEKGGGDKTHTCPPCPAPEAAGGPSVFLFPPKPKDTLMISRTPEVTCVVVDVSHEDPEVKFNWYVDGVEVHNAKTKPREEQYNSTYRVVSVLTVLHQDWLNGKEYKCKVSNKALPAPIEKTISKAKGQPREPQVYTLPPSREEMTKNQVSLWCLVKGFYPSDIAVEWESNGQPENNYKTTPPVLDSDGSFFLYSKLTVDKSRWQQGNVFSCSVMHEALHNHYTQKSLSLSPGK
chain 2: QAVVTQEPSLTVSPGGTVTLTCRSSTGAVTTSNYANWVQQKPGQAPRGLIGGTNKRAPWTPARFSGSLLGGKAALTITGAQAEDEADYYCALWYSNLWVFGGGTKLTVLGGGGSGGGGQVQLVQSGAEVKKPGASVKVSCKASGYTFTSFWMHWVRQAPGQGLEWMGRIDPNRGGTEYNEKAKSRVTMTADKSTSTAYMELSSLRSEDTAVYYCAGGNPYYPMDYWGQGTTVTVSSGGCGGGKVAALKEKVAALKEKVAALKEKVAALKE
heavy: EVQLQQSGAELVKPGASVKLSCTASGFNIKDTYIHFVRQRPEQGLEWIGRIDPANDNTLYASKFQGKATITADTSSNTAYMHLCSLTSGDTAVYYCGRGYGYYVFDHWGQGTTLTVSSASTKGPSVFPLAPSSKSTSGGTAALGCLVKDYFPEPVTVSWNSGALTSGVHTFPAVLQSSGLYSLSSVVTVPSSSLGTQTYICNVNHKPSNTKVDKRVEPKSCDKTHTCPPCPAPEAAGGPSVFLFPPKPKDTLMISRTPEVTCVVVDVSHEDPEVKFNWYVDGVEVHNAKTKPREEQYNSTYRVVSVLTVLHQDWLNGKEYKCKVSNKALPAPIEKTISKAKGQPREPQVYTLPPSREEMTKNQVSLSCAVKGFYPSDIAVEWESNGQPENNYKTTPPVLDSDGSFFLVSKLTVDKSRWQQGNVFSCSVMHEALHNRYTQKSLSLSPGK
light: DVQINQSPSFLAASPGETITINCRTSRSISQYLAWYQEKPGKTNKLLIYSGSTLQSGIPSRFSGSGSGTDFTLTISGLEPEDFAMYYCQQHNENPLTFGAGTKLELRRTVAAPSVFIFPPSDEQLKSGTASVVCLLNNFYPREAKVQWKVDNALQSGNSQESVTEQDSKDSTYSLSSTLTLSKADYEKHKVYACEVTHQGLSSPVTKSFNRGEC
- EC50 (nM) of killing, CD4+ effector cells, JIMT1-luc target cells, E:T 5:1 [3]: 0.0045 nM
- EC50 (nM) of killing, CD8+ effector cells, JIMT1-luc target cells, E:T 5:1 [3]: 0.0007 nM
- EC50 (nM) of killing, PanT effector cells, JIMT1-luc target cells, E:T 5:1 [3]: 0.0009 nM
- EC50 (read off the curve) [4]: ~1 nM

B4: 5T4 mAb 1/CD3 mAb 2 Low/CD8 mAb 1 Tri-Specific Binding Molecule (other)
chain 1: DIQMTQSPSSLSASVGDRVTITCRASQGISNYLAWFQQKPGKAPKSLIYRANRLQSGVPSRFSGSGSGTDFTLTISSLQPEDVATYYCLQYDDFPWTFGQGTKLEIKGGGSGGGGEVQLVESGGGLVQPGGSLRLSCAASGFTFSTYAMNWVRQAPGKGLEWVGRIRSKYNNYATYYADSVKGRFTISRDDSKNSLYLQMNSLKTEDTAVYYCVRHGNFGNSYVTWFAYWGQGTLVTVSSASTKGEVAACEKEVAALEKEVAALEKEVAALEKGGGDKTHTCPPCPAPEAAGGPSVFLFPPKPKDTLMISRTPEVTCVVVDVSHEDPEVKFNWYVDGVEVHNAKTKPREEQYNSTYRVVSVLTVLHQDWLNGKEYKCKVSNKALPAPIEKTISKAKGQPREPQVYTLPPSREEMTKNQVSLWCLVKGFYPSDIAVEWESNGQPENNYKTTPPVLDSDGSFFLYSKLTVDKSRWQQGNVFSCSVMHEALHNHYTQKSLSLSPGK
chain 2: QAVVTQEPSLTVSPGGTVTLTCRSSTGAVTTSNYANWVQQKPGQAPRGLIGGTNKRAPWTPARFSGSLLGGKAALTITGAQAEDEADYYCALWYSNLWVFGGGTKLTVLGGGGSGGGGQVQLVQSGAEVKKPGASVKVSCKASGYTFTSFWMHWVRQAPGQGLEWMGRIDPNRGGTEYNEKAKSRVTMTADKSTSTAYMELSSLRSEDTAVYYCAGGNPYYPMDYWGQGTTVTVSSASTKGKVAACKEKVAALKEKVAALKEKVAALKE
heavy: B3 heavy
light: B3 light
- EC50 (read off the curve) [4]: ~0.8 nM
